From patent publication US12065483

Legend:
[1] = target: Influenza Hemagglutinin B (influenza B virus); test: ELISA on Influenza Hemagglutinin B (1 ug/mL); 293 supernatant diluted 1:10
[2] = target: Influenza Hemagglutinin B (influenza B virus); test: ELISA on Influenza Hemagglutinin B (1 ug/mL); 293 supernatant diluted 1:100
[3] = target: Influenza Hemagglutinin B (influenza B virus); test: ELISA on Influenza Hemagglutinin B (1 ug/mL); 293 supernatant diluted 1:10000
[4] = target: Influenza Hemagglutinin B (influenza B virus); test: ELISA on Influenza Hemagglutinin B (1 ug/mL); 293 supernatant diluted 1:1000
[5] = target: Influenza Hemagglutinin A (influenza A virus); test: ELISA on Influenza Hemagglutinin A (1 ug/mL); 293 supernatant diluted 1:10000
[6] = target: Influenza Hemagglutinin A (influenza A virus); test: ELISA on Influenza Hemagglutinin A (1 ug/mL); 293 supernatant diluted 1:10
[7] = target: Influenza Hemagglutinin A (influenza A virus); test: ELISA on Influenza Hemagglutinin A (1 ug/mL); 293 supernatant diluted 1:100
[8] = target: Influenza Hemagglutinin A (influenza A virus); test: ELISA on Influenza Hemagglutinin A (1 ug/mL); 293 supernatant diluted 1:1000

Binder | ELISA signal [1] | ELISA signal [2] | ELISA signal [3] | ELISA signal [4] | ELISA signal [5] | ELISA signal [6] | ELISA signal [7] | ELISA signal [8]
F2-02 (VHH) VHH: QVQLVESGGGLVQAGGSLRLSCAASGRTFRSFAMGWFRQAPGKEREFVATISWWSNNTYYADSVKGRFTISRDIAKNTVYLQMNSLKPEDTAVYYCAADLGPWLTAGQYDYWGQGTQVTVSS | 0.826 | 0.863 | 0.266 | 0.61 | 0.405 | 1.21 | 1.09 | 0.73
F2-20 (VHH) VHH: QVQLVESGGGLVQAGGSLRLSCAASGRTFSRYAMGWFRQAPGKEREFVARISWSGDITYYADSVKGRFTISRDNAKNTVYLQMNSLKPEDTAVYYCAADAILRTRPPYESDYWGQGTQVTVSS | 1.58 | 1.52 | 0.805 | 1.2 | 0.269 | 0.884 | 0.629 | 0.442
F1-04 (VHH) VHH: QVQLVESGGGLVQVGGSLRLSCAASERPSSNYAMGWFRQAPGKEQEFVAAIYWSGGGTAYGDSVKGRFTISKDNAKNTVYLQMNDLKPEDTGMYYCTTDHYGSWSYEYGSWGQGTQVTVSS | 1.47 | 1.63 | 0.205 | 0.738 | 0.058 | 1.76 | 2 | 0.366
F2-24 (VHH) VHH: QVQLVESGGGLVQAGGSLRLSCASSGHTFNSYVMGWFRQAPGKEREFVAAIRPSGVSTYYADSVKGRFTISRDNAKNTVSLEMNSLKPEDTAVYYCAGDRDHSMMAVRRLSSYRQWGRGTQVTVSS | 1.69 | 1.85 | 1.45 | 1.63 | 0.15 | 0.444 | 0.427 | 0.279
